First the molecules themselves.
B3: G1-IKKα, full-length wt IKKα fused to the Gluc1 fragment (enzyme, human, UniProt O15111 1-745, looked up)
chain: MERPPGLRPGAGGPWEMRERLGTGGFGNVCLYQHRELDLKIAIKSCRLELSTKNRERWCHEIQIMKKLNHANVVKACDVPEELNILIHDVPLLAMEYCSGGDLRKLLNKPENCCGLKESQILSLLSDIGSGIRYLHENKIIHRDLKPENIVLQDVGGKIIHKIIDLGYAKDVDQGSLCTSFVGTLQYLAPELFENKPYTATVDYWSFGTMVFECIAGYRPFLHHLQPFTWHEKIKKKDPKCIFACEEMSGEVRFSSHLPQPNSLCSLVVEPMENWLQLMLNWDPQQRGGPVDLTLKQPRCFVLMDHILNLKIVHILNMTSAKIISFLLPPDESLHSLQSRIERETGINTGSQELLSETGISLDPRKPASQCVLDGVRGCDSYMVYLFDKSKTVYEGPFASRSLSDCVNYIVQDSKIQLPIIQLRKVWAEAVHYVSGLKEDYSRLFQGQRAAMLSLLRYNANLTKMKNTLISASQQLKAKLEFFHKSIQLDLERYSEQMTYGISSEKMLKAWKEMEEKAIHYAEVGVIGYLEDQIMSLHAEIMELQKSPYGRRQGDLMESLEQRAIDLYKQLKHRPSDHSYSDSTEMVKIIVHTVQSQDRVLKELFGHLSKLLGCKQKIIDLLPKVEVALSNIKEADNTVMFMQGKRQKEIWHLLKIACTQSSARSLVGSSLEGAVTPQTSAWLPPTSAEHDHSLSCVVTPQDGETSAQMIEENLNCLGHLSTIIHEANEEQGNSMMNLDWSWLTE
notes: Expressed in HEK293T cells for GPCA; full-length; also called Gluc1-IKKα; not shown: Gluc1 fragment of Gaussia princeps luciferase and flexible 20 amino acid linker, N-terminal

The target of assay [1] is T1, IKKα(10-667) S176E/S180E homodimer, 6×His tag removed (human, UniProt O15111 10-667).
T1 construct: also called purified IKKα
T1 sequence (looked up): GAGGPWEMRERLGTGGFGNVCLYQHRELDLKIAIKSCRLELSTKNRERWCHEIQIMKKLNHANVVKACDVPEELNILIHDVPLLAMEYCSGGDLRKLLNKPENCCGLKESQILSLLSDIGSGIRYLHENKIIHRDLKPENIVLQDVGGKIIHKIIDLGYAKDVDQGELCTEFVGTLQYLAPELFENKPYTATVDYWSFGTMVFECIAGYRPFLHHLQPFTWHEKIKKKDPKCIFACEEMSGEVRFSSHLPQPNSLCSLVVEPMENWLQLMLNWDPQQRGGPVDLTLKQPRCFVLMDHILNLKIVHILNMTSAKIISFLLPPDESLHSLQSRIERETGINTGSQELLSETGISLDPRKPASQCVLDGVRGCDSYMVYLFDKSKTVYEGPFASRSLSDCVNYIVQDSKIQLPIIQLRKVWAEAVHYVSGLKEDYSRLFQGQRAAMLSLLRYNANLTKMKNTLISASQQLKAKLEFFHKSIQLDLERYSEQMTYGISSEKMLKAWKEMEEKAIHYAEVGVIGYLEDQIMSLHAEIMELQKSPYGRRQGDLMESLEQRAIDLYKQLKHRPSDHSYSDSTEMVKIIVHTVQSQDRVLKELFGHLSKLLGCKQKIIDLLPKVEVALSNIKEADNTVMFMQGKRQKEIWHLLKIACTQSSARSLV
Briefly: ITC. On the procedure:
(§1) All experiments were performed in ITC buffer (20 mM HEPES pH 8.0, 150 mM NaCl, 1 mM TCEP) unless otherwise stated. […] Just before the ITC experiments, IKKα or IKKβ samples were concentrated, incubated at room temperature for 30 minutes and centrifuged at 11000 g to remove eventual precipitate. The final concentrations of IKKα and IKKβ in the sample cell varied between 22 and 50 μM depending on the measurement. […] The concentration of peptides in the syringe varied between 220 and 975 μM depending on the measurement.
(§2) All ITC experiments were performed at 25° C. The data were fitted to a 1:1 binding model. […] All data were processed using NITPIC software and global fitting of two datasets was carried out using SEDPHAD.
On the technique in general: ITC needs no label: the signal is the heat of the interaction.

The target in assay [2] is T2, IKKβ(1-669) S177E/S181E homodimer, 6×His tag removed (human, UniProt O14920 1-669).
T2 sequence (looked up): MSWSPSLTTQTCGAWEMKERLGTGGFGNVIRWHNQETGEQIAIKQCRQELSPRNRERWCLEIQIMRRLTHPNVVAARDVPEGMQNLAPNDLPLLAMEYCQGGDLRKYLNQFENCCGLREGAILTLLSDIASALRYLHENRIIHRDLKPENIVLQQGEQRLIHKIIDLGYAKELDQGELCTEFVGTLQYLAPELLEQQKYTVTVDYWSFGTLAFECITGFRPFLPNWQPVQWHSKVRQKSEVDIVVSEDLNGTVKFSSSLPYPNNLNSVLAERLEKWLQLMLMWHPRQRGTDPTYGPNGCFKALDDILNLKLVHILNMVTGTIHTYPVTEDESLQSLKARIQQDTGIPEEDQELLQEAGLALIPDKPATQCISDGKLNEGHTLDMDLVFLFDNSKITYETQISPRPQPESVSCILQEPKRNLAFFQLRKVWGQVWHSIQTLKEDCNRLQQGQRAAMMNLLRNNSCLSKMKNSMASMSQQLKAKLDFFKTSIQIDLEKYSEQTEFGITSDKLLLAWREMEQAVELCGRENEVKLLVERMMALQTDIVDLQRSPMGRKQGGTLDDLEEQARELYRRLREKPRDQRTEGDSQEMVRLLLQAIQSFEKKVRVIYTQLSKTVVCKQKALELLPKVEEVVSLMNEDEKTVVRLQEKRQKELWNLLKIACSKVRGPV
In words: ITC. As to the method:
as §1, §2

Assay [3] has as its target T1, IKKα(10-667) S176E/S180E homodimer, …. Briefly: ITC, 25 °C, synthetic peptide into IKK homodimer, 1:1 model. As to the method: as §1, §2
The target in assay [4] is T2, IKKβ(1-669) S177E/S181E homodimer, …. Described as above. As to the method:
as §1, §2

The target of assay [5] is B3. In words: GPCA (Gaussia princeps protein complementation assay), G1-IKKα FL with G2-p100 constructs, NLR. As to the method:
(§3) HEK293T cells were transfected using the reverse transfection method. Transfection mixes containing 100 ng of pSPICA-N2 and 100 ng of pSPICA-N1 plasmids expressing test proteins plus JetPEI® (Polyplus transfection) were dispensed in white 96-well plates. HEK293T cells were then seeded on the DNA mixes at a concentration of 4.2×10^4 cells per well. 48 hours after transfection, cells were washed with 50 μl of PBS and lysed with 40 μl of Renilla lysis buffer (Promega, E2820) for 30 minutes with agitation. Gaussia princeps luciferase enzymatic activity was measured using a Berthold Centro LB960 luminometer by injecting 50 μl per well of luciferase substrate reagent (Promega, E2820) and counting luminescence for 10 seconds. Results are expressed as a fold change normalized over the sum of controls, specified herein as normalized luminescence ratio (NLR) 29. For a given protein pair A/B, NLR=(Gluc1-A+Gluc2-B)/[(Gluc1-A+Gluc2)+(Gluc1+Gluc2-B)]. All interactions were measured in three independent experiments, with each experiment being carried out in triplicate. The expression levels of Gluc1- and Gluc2-fused proteins were checked by Western blotting. 24 hours post-transfection, HEK293T cells were collected, lysed by incubation on ice and centrifuged. Aliquots of cleared supernatants were loaded onto an 10% SDS-PAGE gel.

The target in another assay is T3, G2-p100 1-852 (UniProt Q00653 1-852).
T3 construct: range 1-852; not shown: Gluc2 fragment of Gaussia princeps luciferase and flexible 20 amino acid linker, N-terminal
T3 sequence (looked up): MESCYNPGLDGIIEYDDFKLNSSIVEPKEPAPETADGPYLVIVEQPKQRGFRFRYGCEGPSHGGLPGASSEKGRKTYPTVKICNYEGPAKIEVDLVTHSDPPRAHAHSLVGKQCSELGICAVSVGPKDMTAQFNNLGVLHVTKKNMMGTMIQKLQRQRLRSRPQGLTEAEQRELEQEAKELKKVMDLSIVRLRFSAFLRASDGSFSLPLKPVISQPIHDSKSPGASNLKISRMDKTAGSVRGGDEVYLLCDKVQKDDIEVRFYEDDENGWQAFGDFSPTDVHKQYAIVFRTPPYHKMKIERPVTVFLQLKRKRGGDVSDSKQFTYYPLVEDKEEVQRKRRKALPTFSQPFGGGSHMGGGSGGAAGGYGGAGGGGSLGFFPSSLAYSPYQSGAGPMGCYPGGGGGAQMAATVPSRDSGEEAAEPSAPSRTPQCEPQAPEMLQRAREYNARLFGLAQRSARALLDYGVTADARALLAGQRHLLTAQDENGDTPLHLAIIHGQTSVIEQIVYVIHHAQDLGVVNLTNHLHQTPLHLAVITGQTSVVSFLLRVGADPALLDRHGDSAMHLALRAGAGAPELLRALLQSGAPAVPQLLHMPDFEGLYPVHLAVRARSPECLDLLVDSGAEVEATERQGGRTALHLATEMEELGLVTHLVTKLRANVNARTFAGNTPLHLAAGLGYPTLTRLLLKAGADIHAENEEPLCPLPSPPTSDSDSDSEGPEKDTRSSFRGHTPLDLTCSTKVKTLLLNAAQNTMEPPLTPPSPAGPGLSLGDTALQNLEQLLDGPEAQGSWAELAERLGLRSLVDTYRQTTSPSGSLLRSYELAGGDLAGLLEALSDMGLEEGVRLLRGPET
Described as above. On the procedure:
as §3

B1: synthetic IκBα pep C308L (peptide)
peptide: EFTEDELPYDDLVFGGQRLTL
notes: also called C308L IκBα pep; IkBα pep C308L
By Kd is commonly meant the free concentration of one partner at which half of the binding sites on the other are occupied at equilibrium, for simple one-to-one binding. Read a high Kd as lower affinity. Regarding B1, the “fold enhancement of affinity against IκBα pep wt” value in assay [1] amounted to 25 fold. The “fold enhancement of affinity against IκBα pep wt” value in assay [2] is 15 fold. Also, in assay [3], the Kd came to 350 nM, the “N (binding stoichiometry)” value stood at 0.65, the TΔS is -4.71 kcal/mol and the ΔG was -8.8 kcal/mol. The molecule also gave a ΔH in assay [3] of -13.5 kcal/mol. In addition, in assay [4], binding was characterised by a dissociation constant (Kd) of 2600 nM, the “N (binding stoichiometry)” value was determined as 0.63, the TΔS was -4.59 kcal/mol and the ΔG was -7.61 kcal/mol. The same molecule had a ΔH in assay [4] of -12.2 kcal/mol.

B2: FL YD/SS (other)
chain: MESCYNPGLDGIIESDSFKLNSSIVEPKEPAPETADGPYLVIVEQPKQRGFRFRYGCEGPSHGGLPGASSEKGRKTYPTVKICNYEGPAKIEVDLVTHSDPPRAHAHSLVGKQCSELGICAVSVGPKDMTAQFNNLGVLHVTKKNMMGTMIQKLQRQRLRSRPQGLTEAEQRELEQEAKELKKVMDLSIVRLRFSAFLRASDGSFSLPLKPVISQPIHDSKSPGASNLKISRMDKTAGSVRGGDEVYLLCDKVQKDDIEVRFYEDDENGWQAFGDFSPTDVHKQYAIVFRTPPYHKMKIERPVTVFLQLKRKRGGDVSDSKQFTYYPLVEDKEEVQRKRRKALPTFSQPFGGGSHMGGGSGGAAGGYGGAGGGGSLGFFPSSLAYSPYQSGAGPMGCYPGGGGGAQMAATVPSRDSGEEAAEPSAPSRTPQCEPQAPEMLQRAREYNARLFGLAQRSARALLDYGVTADARALLAGQRHLLTAQDENGDTPLHLAIIHGQTSVIEQIVYVIHHAQDLGVVNLTNHLHQTPLHLAVITGQTSVVSFLLRVGADPALLDRHGDSAMHLALRAGAGAPELLRALLQSGAPAVPQLLHMPDFEGLYPVHLAVRARSPECLDLLVDSGAEVEATERQGGRTALHLATEMEELGLVTHLVTKLRANVNARTFAGNTPLHLAAGLGYPTLTRLLLKAGADIHAENEEPLCPLPSPPTSDSDSDSEGPEKDTRSSFRGHTPLDLTCSTKVKTLLLNAAQNTMEPPLTPPSPAGPGLSLGDTALQNLEQLLDGPEAQGSWAELAERLGLRSLVDTYRQTTSPSGSLLRSYELAGGDLAGLLEALSDMGLEEGVRLLRGPETRDKLPSTAEVKEDSAYGSQSVEQEAEKLGPPPEPPGGLCHGHPQPQVH
notes: also called G2-p100 FL YD/SS; G2-p100 FL Y15S/D17S; not shown: N-terminal Gluc2 fragment of Gaussia princeps luciferase and the flexible 20 amino acid linker (pSPICA-N2)
Consider B2, for which, in assay [5], the binding result is reported as “binds”.

As to B3, the binding result with G2-p100 1-852 is given as “binds”.

Values taken from patent US20260265321A1, “PEPTIDE AND POLYPEPTIDE INHIBITING THE NF-KB SIGNALING PATHWAY” (Centre National de la Recherche Scientifique, priority 2023, published 2026).
